Biological target: sucrose synthase (Nicotiana tabacum (endogenous in BY-2 cells))
Experiment: native gel or EMSA; two-dimensional blue native PAGE (4-14.5% gradient, 4°C) then SDS-PAGE of BY-2 plasma membrane proteins solubilized with 1% n-octyl-beta-D-glucopyranoside (750 mM amino caproic acid, 100 mM BisTris pH 7.0); subunits detected by immunoblotting on separate blots; association judged by comigration

stoichiometry N: 4
Substance: sucrose synthase (enzyme)
